Biological target: bovine collagen type XI (bovine, UniProt Q28083 279-911; Q32S24 28-1736; P02459 182-1487, Triple helix of alpha1(XI), alpha2(XI) and alpha3(XI), the last being the COL2A1 product; hydroxyproline and glycosylated hydroxylysine. Purchased tissue collagen (Chondrex); limits not given, and t)
Experiment: ELISA; solid phase assay: collagens (50 µg/mL) or fibronectin (10 µg/mL) immobilised on a 96-well plate; DDR2-Fc in 0.05 mg/mL κ-casein in PBS-T, 3 h at room temperature; detected by goat anti-human IgG (Fc specific)-HRP; Kd by Scatchard plot
Conditions: both partners purified

Sequence of bovine collagen type XI (Q28083 279-911, chain 1 of 3): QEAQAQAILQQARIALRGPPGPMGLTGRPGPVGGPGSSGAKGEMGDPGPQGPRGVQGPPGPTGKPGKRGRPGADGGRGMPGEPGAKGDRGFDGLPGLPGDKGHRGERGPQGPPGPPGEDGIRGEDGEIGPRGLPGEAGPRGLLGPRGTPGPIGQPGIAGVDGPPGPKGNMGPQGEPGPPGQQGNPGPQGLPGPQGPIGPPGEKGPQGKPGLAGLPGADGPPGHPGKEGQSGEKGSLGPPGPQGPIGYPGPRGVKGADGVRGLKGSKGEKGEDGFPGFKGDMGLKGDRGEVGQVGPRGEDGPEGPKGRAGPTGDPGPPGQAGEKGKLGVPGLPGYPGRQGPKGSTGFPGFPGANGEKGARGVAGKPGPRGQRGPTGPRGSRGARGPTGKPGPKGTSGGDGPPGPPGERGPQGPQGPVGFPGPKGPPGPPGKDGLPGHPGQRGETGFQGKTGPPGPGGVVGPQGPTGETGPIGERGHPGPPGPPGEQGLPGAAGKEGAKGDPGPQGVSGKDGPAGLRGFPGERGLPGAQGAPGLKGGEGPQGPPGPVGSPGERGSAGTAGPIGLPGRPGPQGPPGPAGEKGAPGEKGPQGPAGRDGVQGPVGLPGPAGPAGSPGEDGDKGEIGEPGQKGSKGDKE
Sequence of bovine collagen type XI (Q32S24 28-1736, chain 2 of 3): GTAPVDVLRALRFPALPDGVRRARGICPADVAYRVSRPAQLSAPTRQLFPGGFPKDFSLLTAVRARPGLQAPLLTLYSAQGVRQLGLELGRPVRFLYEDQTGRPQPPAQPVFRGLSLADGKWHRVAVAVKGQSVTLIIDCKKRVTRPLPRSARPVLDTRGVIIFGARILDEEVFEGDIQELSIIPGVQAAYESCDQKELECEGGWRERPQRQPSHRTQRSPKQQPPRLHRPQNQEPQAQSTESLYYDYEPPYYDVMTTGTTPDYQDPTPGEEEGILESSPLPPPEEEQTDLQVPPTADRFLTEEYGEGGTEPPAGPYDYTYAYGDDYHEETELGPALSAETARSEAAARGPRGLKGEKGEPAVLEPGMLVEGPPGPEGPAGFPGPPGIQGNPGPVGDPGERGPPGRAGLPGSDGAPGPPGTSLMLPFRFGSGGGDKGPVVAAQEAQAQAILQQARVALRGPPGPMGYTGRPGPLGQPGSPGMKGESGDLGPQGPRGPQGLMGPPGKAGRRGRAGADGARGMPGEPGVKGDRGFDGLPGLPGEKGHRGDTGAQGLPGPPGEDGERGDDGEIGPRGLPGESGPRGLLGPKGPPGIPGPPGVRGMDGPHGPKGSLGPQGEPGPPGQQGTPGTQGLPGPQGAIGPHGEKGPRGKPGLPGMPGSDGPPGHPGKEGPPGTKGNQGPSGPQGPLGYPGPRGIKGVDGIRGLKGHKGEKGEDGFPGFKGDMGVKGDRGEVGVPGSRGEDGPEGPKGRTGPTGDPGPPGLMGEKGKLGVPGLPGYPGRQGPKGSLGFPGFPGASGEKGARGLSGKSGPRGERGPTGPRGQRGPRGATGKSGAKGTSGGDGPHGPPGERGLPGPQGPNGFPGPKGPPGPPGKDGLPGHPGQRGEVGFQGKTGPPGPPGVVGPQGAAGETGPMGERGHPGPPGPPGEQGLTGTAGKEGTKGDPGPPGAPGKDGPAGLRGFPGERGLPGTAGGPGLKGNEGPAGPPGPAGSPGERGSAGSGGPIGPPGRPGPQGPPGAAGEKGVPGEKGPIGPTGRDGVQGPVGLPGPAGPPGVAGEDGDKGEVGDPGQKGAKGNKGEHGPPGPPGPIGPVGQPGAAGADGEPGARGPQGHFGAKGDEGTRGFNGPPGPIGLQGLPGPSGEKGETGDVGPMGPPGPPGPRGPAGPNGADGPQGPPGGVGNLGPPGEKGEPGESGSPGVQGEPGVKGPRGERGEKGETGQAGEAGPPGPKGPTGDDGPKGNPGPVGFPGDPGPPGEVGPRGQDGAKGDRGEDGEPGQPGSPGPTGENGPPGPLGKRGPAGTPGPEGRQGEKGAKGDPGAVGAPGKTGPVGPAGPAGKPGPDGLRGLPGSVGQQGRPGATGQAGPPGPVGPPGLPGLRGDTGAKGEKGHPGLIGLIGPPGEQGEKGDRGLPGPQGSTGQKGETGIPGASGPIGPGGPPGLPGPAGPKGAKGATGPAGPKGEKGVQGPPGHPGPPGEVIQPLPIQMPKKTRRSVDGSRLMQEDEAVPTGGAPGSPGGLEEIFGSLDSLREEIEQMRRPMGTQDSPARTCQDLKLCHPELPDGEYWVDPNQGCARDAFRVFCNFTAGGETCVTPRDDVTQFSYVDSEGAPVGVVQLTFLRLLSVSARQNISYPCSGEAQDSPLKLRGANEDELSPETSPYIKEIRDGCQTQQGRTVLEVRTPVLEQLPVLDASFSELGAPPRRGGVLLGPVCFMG
Sequence of bovine collagen type XI (P02459 182-1487, chain 3 of 3): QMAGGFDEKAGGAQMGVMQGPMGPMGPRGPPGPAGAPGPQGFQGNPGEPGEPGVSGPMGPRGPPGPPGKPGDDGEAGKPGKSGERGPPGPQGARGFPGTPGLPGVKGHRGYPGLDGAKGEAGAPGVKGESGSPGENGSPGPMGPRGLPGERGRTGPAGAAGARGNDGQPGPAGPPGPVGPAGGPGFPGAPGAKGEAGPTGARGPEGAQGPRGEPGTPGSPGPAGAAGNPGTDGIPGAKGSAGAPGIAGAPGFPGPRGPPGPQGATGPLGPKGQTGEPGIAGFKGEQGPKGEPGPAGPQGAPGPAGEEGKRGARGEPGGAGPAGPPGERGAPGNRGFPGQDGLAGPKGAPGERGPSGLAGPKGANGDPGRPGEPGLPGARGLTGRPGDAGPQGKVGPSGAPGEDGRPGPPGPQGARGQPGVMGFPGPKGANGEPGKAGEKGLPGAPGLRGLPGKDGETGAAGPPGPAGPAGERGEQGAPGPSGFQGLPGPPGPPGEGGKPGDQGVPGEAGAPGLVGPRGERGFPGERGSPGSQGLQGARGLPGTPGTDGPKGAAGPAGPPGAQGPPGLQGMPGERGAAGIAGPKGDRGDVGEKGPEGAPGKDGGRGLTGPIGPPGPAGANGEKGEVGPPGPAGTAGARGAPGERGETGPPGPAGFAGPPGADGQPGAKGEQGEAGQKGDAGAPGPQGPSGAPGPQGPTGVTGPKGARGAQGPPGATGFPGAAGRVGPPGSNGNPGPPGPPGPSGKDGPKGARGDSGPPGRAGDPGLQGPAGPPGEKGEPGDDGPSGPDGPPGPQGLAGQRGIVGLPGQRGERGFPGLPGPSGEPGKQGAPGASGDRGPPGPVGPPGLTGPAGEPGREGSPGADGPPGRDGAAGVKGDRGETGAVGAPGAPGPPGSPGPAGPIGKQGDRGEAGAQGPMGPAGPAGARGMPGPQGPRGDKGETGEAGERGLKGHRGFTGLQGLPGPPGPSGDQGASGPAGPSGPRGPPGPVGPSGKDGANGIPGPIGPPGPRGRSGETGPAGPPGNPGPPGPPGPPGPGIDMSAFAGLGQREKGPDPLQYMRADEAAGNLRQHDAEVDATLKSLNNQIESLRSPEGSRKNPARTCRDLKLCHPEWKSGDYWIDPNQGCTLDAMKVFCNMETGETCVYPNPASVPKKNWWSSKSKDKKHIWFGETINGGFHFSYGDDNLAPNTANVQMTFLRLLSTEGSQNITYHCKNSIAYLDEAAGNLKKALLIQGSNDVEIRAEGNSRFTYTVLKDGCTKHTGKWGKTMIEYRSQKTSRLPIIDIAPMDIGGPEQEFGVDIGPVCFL

- Kd: 2 to 5 nM
B1: Recombinant human DDR2-Fc chimera protein (Fc fusion, UniProt Q16832 22-399, looked up)
chain: KAQVNPAICRYPLGMSGGQIPDEDITASSQWSESTAAKYGRLDSEEGDGAWCPEIPVEPDDLKEFLQIDLHTLHFITLVGTQGRHAGGHGIEFAPMYKINYSRDGTRWISWRNRHGKQVLDGNSNPYDIFLKDLEPPIVARFVRFIPVTDHSMNVCMRVELYGCVWLDGLVSYNAPAGQQFVLPGGSIIYLNDSVYDGAVGYSMTEGLGQLTDGVSGLDDFTQTHEYHVWPGYDYVGWRNESATNGYIEIMFEFDRIRNFTTMKVHCNNMFAKGVKIFKEVQCYFRSEASEWEPNAISFPLVLDDVNPSARFVTVPLHHRMASAIKCQYHFADTWMMFSEITFQSDAAMYNNSEALPTSPMAPTTYDPMLKVDDSNTR
notes: discoidin domain receptor 2, human; No catalogue number printed; Probably the extracellular domain of DDR2 joined to a human IgG Fc; Detected by goat anti-human IgG (Fc specific)-HRP; source: bought: Sino Biological
